1 substance from paper PMC2768864 can be followed below.

The target of this experiment is Ixodes ricinus contact phase inhibitor (Ir-CPI) (Ixodes ricinus) (UniProt Q9GP15). The experiment is described as follows: SPR. (SPR reads the build-up and loss of mass on a sensor chip optically.)
Sequence of Ixodes ricinus contact phase inhibitor (Ir-CPI) (Ixodes ricinus) (Q9GP15 20-86): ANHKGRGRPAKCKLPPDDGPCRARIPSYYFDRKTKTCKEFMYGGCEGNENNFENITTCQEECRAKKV

With plasmin (enzyme), the Ka turned out to be 3.3e+08 M⁻¹; the ka1 (two-state model, formation of AB) was 900000 M⁻¹ s⁻¹; the ka2 (two-state model, forward conformation change) was 0.00582 s⁻¹; the kd1 (two-state model, dissociation of AB) came out at 0.00535 s⁻¹. The kd2 (two-state model, backward conformation change) turned out to be 0.00614 s⁻¹.
